{"source": "patent US20150152192A1", "about": "(SAMSUNG ELECTRONICS, published 2015)", "binders": {"B1": {"name": "anti-c-Met/anti-Ang2 bispecific antibody (anti-Ang2 4-H10 scFv fused to the C-terminus of anti-c-Met antibody L3-1Y-IgG2) (bispecific antibody)", "heavy": "EVQLVESGGGLVQPGGSLRLSCAASGFTFTDYYMSWVRQAPGKGLEWLGFIRNKANGYTTEYSASVKGRFTISRDNSKNTLYLQMNSLRAEDTAVYYCARDNWFAYWGQGTLVTVSSASTKGPSVFPLAPCSRSTSESTAALGCLVKDYFPEPVTVSWNSGALTSGVHTFPAVLQSSGLYSLSSVVTVPSSNFGTQTYTCNVDHKPSNTKVDKTVERKCCVECPPCPAPPVAGPSVFLFPPKPKDTLMISRTPEVTCVVVDVSHEDPEVQFNWYVDGVEVHNAKTKPREEQFNSTFRVVSVLTVVHQDWLNGKEYKCKVSNKGLPAPIEKTISKTKGQPREPQVYTLPPSREEMTKNQVSLTCLVKGFYPSDIAVEWESNGQPENNYKTTPPMLDSDGSFFLYSKLTVDKSRWQQGNVFSCSVMHEALHNHYTQKSLSLSPGGGGGSGGGGSEVQLLESGGGLVQPGGSLRLSCAASGFTFSSYDMSWVRLAPGKGLEWVSLISPDSSSIYYADSVKGRFTISRDNSKNTLYLQMNSLRAEDTAVYYCAKDLISFWRGGFDYWGQGTLVTVSSGGGGSGGGGSGSGGSQSVLTQPPSASGTPGQRVTISCSGSSSNIGSNYVNWYQQLPGTAPKLLIYSDSHRPSGVPDRFSGSKSGTSASLAISGLRSEDEADYYCGAWDDSLSGYVFGGGTKLTVLGQAGQHHHHHHGAYPYDVPDYAS", "light": "DIQMTQSPSSLSASVGDRVTITCKSSQSLLASGNQNNYLAWYQQKPGKAPKMLIIWASTRVSGVPSRFSGSGSGTDFTLTISSLQPEDFATYYCQQSYSRPYTFGQGTKVEIKRTVAAPSVFIFPPSDEQLKSGTASVVCLLNNFYPREAKVQWKVDNALQSGNSQESVTEQDSKDSTYSLSSTLTLSKADYEKHKVYACEVTHQGLSSPVTKSFNRGEC", "notes": "also called BS ab; BS Ab"}}, "key": {"[1]": {"target": "T1, human Ang2 polypeptide (R&D systems; Accession #O15123; SEQ ID NO: 172) (human, UniProt O15123 19-496)", "T1 construct": "Bought protein; also called hAng2; human Ang2 protein", "T1 sequence": "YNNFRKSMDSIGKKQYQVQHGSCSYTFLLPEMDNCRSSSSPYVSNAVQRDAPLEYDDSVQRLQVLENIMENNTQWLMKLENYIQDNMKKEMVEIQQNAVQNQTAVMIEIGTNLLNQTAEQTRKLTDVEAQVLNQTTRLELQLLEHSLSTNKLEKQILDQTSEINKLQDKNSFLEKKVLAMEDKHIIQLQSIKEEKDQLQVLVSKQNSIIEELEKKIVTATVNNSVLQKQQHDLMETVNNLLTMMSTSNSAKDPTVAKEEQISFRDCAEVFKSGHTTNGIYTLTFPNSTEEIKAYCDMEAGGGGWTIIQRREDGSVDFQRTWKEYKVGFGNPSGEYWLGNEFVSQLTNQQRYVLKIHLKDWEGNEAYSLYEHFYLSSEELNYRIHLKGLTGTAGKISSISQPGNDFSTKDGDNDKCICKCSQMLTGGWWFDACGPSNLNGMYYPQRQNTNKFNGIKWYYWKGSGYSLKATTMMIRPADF", "assay": "ELISA, human Ang2 coated, anti-human Fc-HRP; 50% binding concentration"}, "[2]": {"target": "T2, human c-Met/Fc fusion protein (R&D Systems) (human, UniProt P08581 25-932)", "T2 construct": "also called c-Met-Fc (#358-MT/CF, R&D Systems); human c-Met/Fc protein; not shown: Fc part", "T2 sequence (P08581 25-932 limits assumed)": "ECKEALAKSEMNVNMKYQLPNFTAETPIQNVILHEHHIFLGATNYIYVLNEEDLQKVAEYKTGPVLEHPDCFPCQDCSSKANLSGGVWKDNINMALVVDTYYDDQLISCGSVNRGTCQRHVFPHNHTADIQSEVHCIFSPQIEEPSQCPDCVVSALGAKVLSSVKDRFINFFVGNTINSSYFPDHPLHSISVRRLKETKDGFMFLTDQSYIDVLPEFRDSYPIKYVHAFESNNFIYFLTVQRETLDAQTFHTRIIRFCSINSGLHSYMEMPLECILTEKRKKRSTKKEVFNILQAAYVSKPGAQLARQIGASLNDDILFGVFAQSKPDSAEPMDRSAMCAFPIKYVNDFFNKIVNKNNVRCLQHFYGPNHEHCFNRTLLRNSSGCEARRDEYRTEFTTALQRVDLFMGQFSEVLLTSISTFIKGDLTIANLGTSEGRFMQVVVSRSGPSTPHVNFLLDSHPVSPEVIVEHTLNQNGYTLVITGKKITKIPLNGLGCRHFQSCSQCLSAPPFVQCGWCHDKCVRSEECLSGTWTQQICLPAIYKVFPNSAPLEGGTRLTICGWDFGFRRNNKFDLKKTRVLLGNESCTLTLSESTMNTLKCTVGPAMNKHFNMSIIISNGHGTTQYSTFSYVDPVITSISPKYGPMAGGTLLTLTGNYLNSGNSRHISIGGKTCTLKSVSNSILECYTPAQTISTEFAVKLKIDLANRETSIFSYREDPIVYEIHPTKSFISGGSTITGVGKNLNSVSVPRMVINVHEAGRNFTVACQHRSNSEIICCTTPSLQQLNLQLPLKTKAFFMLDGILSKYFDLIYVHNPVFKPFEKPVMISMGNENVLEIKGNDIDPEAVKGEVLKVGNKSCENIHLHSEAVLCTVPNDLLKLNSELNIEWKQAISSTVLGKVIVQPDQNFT", "assay": "SPR, Biacore T100, bispecific antibody captured by human Fab binder on CM5 chip, c-Met-Fc flowed", "method": "For this, a human Fab binder (GE Healthcare) was fixed on the surface of CM5 chip (#BR-1005-30, GE) according to manufacturer's manual. […] Hereto, 10 mM Glycine-HCl (pH 1.5) solution was added, to regenerate the surface. To measure the affinity, the above obtained data were fitted using BIAevaluation software (GE Healthcare, Biacore T100 evaluation software)."}}}
{"binder": "B1", "values": [{"measurement": "Kd", "setting": "[1]", "result": 31, "unit": "nM"}, {"measurement": "Kd", "setting": "[2]", "result": 0.09, "unit": "nM"}, {"measurement": "koff", "setting": "[2]", "result": "8.2e-05", "unit": "s⁻¹"}, {"measurement": "kon", "setting": "[2]", "result": 850000, "unit": "M⁻¹ s⁻¹"}]}
